Measured values from publication PMC11996679, “Molecular basis of human nuclear and mitochondrial tRNA 3′ processing” (Nature Structural & Molecular Biology, 2024).

B3: Δ1–91 TRMT10C (enzyme, human, UniProt Q7L0Y3 92-403, looked up)
chain: AATREFIEMWRLLGREVPEHITEEELKTLMECVSNTAKKKYLKYLYTKEKVKKARQIKKEMKAAAREEAKNIKLLETTEEDKQKNFLFLRLWDRNMDIAMGWKGAQAMQFGQPLVFDMAYENYMKRKELQNTVSQLLESEGWNRRNVDPFHIYFCNLKIDGALHRELVKRYQEKWDKLLLTSTEKSHVDLFPKDSIIYLTADSPNVMTTFRHDKVYVIGSFVDKSMQPGTSLAKAKRLNLATECLPLDKYLQWEIGNKNLTLDQMIRILLCLKNNGNWQEALQFVPKRKHTGFLEISQHSQEFINRLKKAKT
notes: TRMT10C (MRPP1), human, Δ1–91, used for the structural studies; also called MRPP1

Tests used:
[1] = biological target: B3; assay: cryo-EM structure; mt-RNase Z^Gln: 5–tRNA^Gln–24 first 5′ processed with Δ1–91 TRMT10C–SDR5C1 and Δ1–45 PRORP, then Δ1–31 ELAC2-Asp550Asn added, on ice 60 min; GraFix 10–30% sucrose gradient with 0–0.015% glutaraldehyde, 25 mM Na–HEPES pH 7.5, 20 mM NaCl, 20 μM ZnCl2; pre-mt-tRNA^Gln is part of the complex; details: both partners purified
[2] = biological target: T1, ELAC2 (cryo-EM);TRMT10C;SDR5C1 (Homo sapiens;Homo sapiens;Homo sapiens, UniProt Q9BQ52;Q7L0Y3;Q99714 32-826;40-403;1-261, ||); assay: cryo-EM structure; mt-RNase Z Gln complex (EMD-19455); FA: 20 mM Tris-HCl pH 8, 80 mM NaCl, 40 mM KCl, 3 mM MgCl2, 5% glycerol, 2 mM DTT; 20 nM RNA; 20 min at 20 C, read at room temperature; details: protein: recombinant;recombinant;recombinant; tags: N-terminal 6xHis-TEV (cleaved);;; copies: 1;1;4; tRNA cloverleaf with canonical elbow
T1 sequence 1: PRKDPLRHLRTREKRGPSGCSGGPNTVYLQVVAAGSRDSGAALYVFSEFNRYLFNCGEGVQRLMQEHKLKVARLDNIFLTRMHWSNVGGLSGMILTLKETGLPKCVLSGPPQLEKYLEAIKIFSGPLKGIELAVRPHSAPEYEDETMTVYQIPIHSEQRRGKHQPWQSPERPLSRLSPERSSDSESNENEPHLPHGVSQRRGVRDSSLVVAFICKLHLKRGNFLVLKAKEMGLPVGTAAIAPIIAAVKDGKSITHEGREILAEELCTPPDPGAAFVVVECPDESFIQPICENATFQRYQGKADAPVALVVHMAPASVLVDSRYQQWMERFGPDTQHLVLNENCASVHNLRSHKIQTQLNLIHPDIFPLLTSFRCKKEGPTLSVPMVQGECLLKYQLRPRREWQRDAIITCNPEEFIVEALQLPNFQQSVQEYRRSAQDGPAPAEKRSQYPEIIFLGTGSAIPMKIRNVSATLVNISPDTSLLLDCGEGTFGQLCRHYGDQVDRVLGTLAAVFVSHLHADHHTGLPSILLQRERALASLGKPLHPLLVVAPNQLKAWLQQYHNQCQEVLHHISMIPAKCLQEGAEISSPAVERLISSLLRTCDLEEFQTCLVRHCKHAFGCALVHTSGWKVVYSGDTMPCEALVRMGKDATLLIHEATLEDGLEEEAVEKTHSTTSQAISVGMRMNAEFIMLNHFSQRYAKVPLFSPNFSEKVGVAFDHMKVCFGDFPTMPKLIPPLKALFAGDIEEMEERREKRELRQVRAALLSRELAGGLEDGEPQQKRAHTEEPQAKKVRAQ
T1 sequence 2: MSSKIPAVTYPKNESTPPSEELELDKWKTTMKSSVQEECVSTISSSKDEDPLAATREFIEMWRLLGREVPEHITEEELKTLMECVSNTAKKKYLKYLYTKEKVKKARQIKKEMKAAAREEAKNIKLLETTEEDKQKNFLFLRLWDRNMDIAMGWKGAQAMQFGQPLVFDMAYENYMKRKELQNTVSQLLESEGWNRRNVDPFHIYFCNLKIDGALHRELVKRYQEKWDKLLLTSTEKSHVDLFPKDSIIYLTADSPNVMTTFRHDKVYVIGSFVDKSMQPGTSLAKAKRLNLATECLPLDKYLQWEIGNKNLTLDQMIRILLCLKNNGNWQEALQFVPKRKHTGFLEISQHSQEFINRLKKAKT
T1 sequence 3: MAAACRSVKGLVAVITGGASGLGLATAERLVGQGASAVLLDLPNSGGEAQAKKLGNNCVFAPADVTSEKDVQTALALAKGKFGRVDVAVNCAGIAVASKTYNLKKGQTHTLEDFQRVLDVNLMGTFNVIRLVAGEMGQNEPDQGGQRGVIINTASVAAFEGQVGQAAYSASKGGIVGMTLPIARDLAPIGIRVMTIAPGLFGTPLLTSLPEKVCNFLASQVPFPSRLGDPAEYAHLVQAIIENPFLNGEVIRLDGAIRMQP

[3] = biological target: T2, Δ1–31 ELAC2-Asp550Asn (human, UniProt Q9BQ52 32-826, Asp550Asn); assay: cryo-EM structure; mt-RNase Z^Gln: 5–tRNA^Gln–24 first 5′ processed with Δ1–91 TRMT10C–SDR5C1 and Δ1–45 PRORP, then Δ1–31 ELAC2-Asp550Asn added, on ice 60 min; GraFix 10–30% sucrose gradient with 0–0.015% glutaraldehyde, 25 mM Na–HEPES pH 7.5, 20 mM NaCl, 20 μM ZnCl2; pre-mt-tRNA^Gln is part of the complex; details: both partners purified
T2 construct: Cloned in the 438-B vector (Addgene plasmid 55219) with an N-terminal 6xHis tag and a TEV site; the tag was removed with TEV protease; also called ELAC2^mut; ELAC2(D550N); source: Hi-Five insect cells (baculovirus), purified (HisTrap, TEV cleavage, heparin, Superdex 200); not shown: 6xHis, N-terminal, cleaved
T2 sequence (looked up): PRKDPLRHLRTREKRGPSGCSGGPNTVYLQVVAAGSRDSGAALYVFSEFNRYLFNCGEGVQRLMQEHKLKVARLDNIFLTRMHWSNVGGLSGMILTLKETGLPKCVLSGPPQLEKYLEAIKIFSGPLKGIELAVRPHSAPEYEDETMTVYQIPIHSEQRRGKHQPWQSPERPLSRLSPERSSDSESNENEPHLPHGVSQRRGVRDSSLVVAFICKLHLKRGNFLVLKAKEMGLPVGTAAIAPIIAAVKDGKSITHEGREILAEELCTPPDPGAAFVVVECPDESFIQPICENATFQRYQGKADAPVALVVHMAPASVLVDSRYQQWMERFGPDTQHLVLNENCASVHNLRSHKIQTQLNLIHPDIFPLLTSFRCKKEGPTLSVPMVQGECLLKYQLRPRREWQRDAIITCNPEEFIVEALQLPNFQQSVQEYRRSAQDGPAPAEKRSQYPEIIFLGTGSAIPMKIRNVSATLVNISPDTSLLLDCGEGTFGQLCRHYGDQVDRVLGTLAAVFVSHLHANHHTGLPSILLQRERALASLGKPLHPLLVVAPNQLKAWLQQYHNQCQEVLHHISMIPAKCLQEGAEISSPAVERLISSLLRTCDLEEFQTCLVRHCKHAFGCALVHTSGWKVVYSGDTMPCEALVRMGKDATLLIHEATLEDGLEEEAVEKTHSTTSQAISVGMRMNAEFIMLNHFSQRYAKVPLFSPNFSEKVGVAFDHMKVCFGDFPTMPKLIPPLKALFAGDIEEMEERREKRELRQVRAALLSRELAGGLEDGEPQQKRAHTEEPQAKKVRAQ

B1: SDR5C1 (enzyme, human)
chain: MAAACRSVKGLVAVITGGASGLGLATAERLVGQGASAVLLDLPNSGGEAQAKKLGNNCVFAPADVTSEKDVQTALALAKGKFGRVDVAVNCAGIAVASKTYNLKKGQTHTLEDFQRVLDVNLMGTFNVIRLVAGEMGQNEPDQGGQRGVIINTASVAAFEGQVGQAAYSASKGGIVGMTLPIARDLAPIGIRVMTIAPGLFGTPLLTSLPEKVCNFLASQVPFPSRLGDPAEYAHLVQAIIENPFLNGEVIRLDGAIRMQP
notes: also called MRPP2; HSD17B10
B1: binds [1].

B2: 5-tRNAGln-24 Trailer(Tyr) (structured_RNA)
RNA: GGUGAUAGGAUGGGGUGUGAUAGGUGGCACGGAGAAUUUUGGAUUCUCAGGGAUGGGUUCGAUUCUCAUAGUCCUAGGCUCCGAGGUGAUUUUCAAGCUCG
B2: binds [2].

B3: binds [3].
